The chains are these.
T1: CD123 (Homo sapiens (Human), UniProt P26951 19-305, limits assumed)
T1 construct: also called CD123-Signal
T1 sequence: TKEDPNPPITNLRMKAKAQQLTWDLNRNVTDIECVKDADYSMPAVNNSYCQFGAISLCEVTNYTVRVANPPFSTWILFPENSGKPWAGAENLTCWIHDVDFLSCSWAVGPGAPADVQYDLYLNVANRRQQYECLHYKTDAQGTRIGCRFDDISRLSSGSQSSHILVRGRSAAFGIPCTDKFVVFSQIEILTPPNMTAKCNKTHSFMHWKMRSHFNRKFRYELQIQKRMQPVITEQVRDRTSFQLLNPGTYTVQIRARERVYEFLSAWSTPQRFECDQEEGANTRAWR

B1: D domain SEQ ID NO: 745 (designed binder)
chain: MGSWIEFEDRLYAIEDRLWALGGSEAELAAFEKEIAAFESELQAYKGKGNPEVEFLRYEAAEIRYWLQAYRHN
B2: D domain SEQ ID NO: 722 (designed binder)
chain: MGSWFEFLDRLDAIEERLWALGGSEAELAAFEKEIAAFESELQAYKGKGNPEVEWLREEAAVIRDSLQAYRHN
B3: D domain SEQ ID NO: 727 (designed binder)
chain: MGSWWEFLDRLDAIEMRLFALGGSEAELAAFEKEIAAFESELQAYKGKGNPEVEYLREEAALIRNMLQAYRHN
B4: D domain SEQ ID NO: 719 (designed binder)
chain: MGSWYEFYDRLDAIEWRLWALGGSEAELAAFEKEIAAFESELQAYKGKGNPEVEWLRDEAAQIRDFLQAYRHN
B5: D domain SEQ ID NO: 738 (designed binder)
chain: MGSWVEFWDRLWAIEDRLWALGGSEAELAAFEKEIAAFESELQAYKGKGNPEVEHLRHYAADIRVWLQAYRHN
B6: D domain SEQ ID NO: 713 (designed binder)
chain: MGSWTEFDMRLDAIWDRLFALGGSEAELAAFEKEIAAFESELQAYKGKGNPEVEELREEAATIRGVLQAYRHN
B7: D domain SEQ ID NO: 714 (designed binder)
chain: MGSWEEFHDRLMAIETRLWALGGSEAELAAFEKEIAAFESELQAYKGKGNPEVEWLRYEAADIRDYLQAYRHN
B8: D domain SEQ ID NO: 723 (designed binder)
chain: MGSWYEFMVRLDAIEERLFALGGSEAELAAFEKEIAAFESELQAYKGKGNPEVEFLREEAASIRYHLQAYRHN
B9: D domain SEQ ID NO: 717 (designed binder)
chain: MGSWTEFVWRLDAIEWRLEALGGSEAELAAFEKEIAAFESELQAYKGKGNPEVEFLREEAAEIRDWLQAYRHN
B10: D domain SEQ ID NO: 715 (designed binder)
chain: MGSWVEFRDRLDAIETRLWALGGSEAELAAFEKEIAAFESELQAYKGKGNPEVEWLRYEAAEIRMVLQAYRHN
B11: D domain SEQ ID NO: 741 (designed binder)
chain: MGSWTEFEWRLYAIEDRLMALGGSEAELAAFEKEIAAFESELQAYKGKGNPEVEFLRDEAADIRQYLQAYRHN
B12: D domain SEQ ID NO: 720 (designed binder)
chain: MGSWVEFYDRLDAIEHRLDALGGSEAELAAFEKEIAAFESELQAYKGKGNPEVEWLRDEAAFIRDMLQAYRHN
B13: D domain SEQ ID NO: 726 (designed binder)
chain: MGSWVEFEYRLDAITERLLALGGSEAELAAFEKEIAAFESELQAYKGKGNPEVEILREEAAFIRQWLQAYRHN
B14: D domain SEQ ID NO: 729 (designed binder)
chain: MGSWWEFESRLDAIFMRLTALGGSEAELAAFEKEIAAFESELQAYKGKGNPEVEDLREDAAFIREFLQAYRHN
B15: D domain SEQ ID NO: 739 (designed binder)
chain: MGSWYEFADRLWAIEDRLWALGGSEAELAAFEKEIAAFESELQAYKGKGNPEVEFLRYYAADIRWVLQAYRHN
B16: D domain SEQ ID NO: 721 (designed binder)
chain: MGSWFEFVDRLTAIQVRLWALGGSEAELAAFEKEIAAFESELQAYKGKGNPEVEYLREEAALIRYSLQAYRHN
B17: D domain SEQ ID NO: 718 (designed binder)
chain: MGSWVEFYDRLYAIEVRLLALGGSEAELAAFEKEIAAFESELQAYKGKGNPEVEFLRQEAAEIRDWLQAYRHN
B18: D domain SEQ ID NO: 709 (designed binder)
chain: MGSWYEFDDRLEAIWDRLGALGGSEAELAAFEKEIAAFESELQAYKGKGNPEVEWLRETAADIRAELQAYRHN
B19: D domain SEQ ID NO: 716 (designed binder)
chain: MGSWMEFIDRLDAIEHRLWALGGSEAELAAFEKEIAAFESELQAYKGKGNPEVEFLREEAAEIRMYLQAYRHN
B20: D domain SEQ ID NO: 711 (designed binder)
chain: MGSWIEFEVRLDAIWDRLFALGGSEAELAAFEKEIAAFESELQAYKGKGNPEVEYLRDEAADIRQSLQAYRHN
B21: D domain SEQ ID NO: 740 (designed binder)
chain: MGSWYEFEERLYAIEDRLYALGGSEAELAAFEKEIAAFESELQAYKGKGNPEVEFLRQEAADIRLMLQAYRHN
B22: D domain SEQ ID NO: 712 (designed binder)
chain: MGSWTEFDRRLDAIWDRLFALGGSEAELAAFEKEIAAFESELQAYKGKGNPEVEWLREEAADIRDYLQAYRHN
B23: D domain SEQ ID NO: 728 (designed binder)
chain: MGSWWEFEDRLDAIEYRLFALGGSEAELAAFEKEIAAFESELQAYKGKGNPEVEFLREEAAFIRIFLQAYRHN
B24: D domain SEQ ID NO: 704 (designed binder)
chain: MGSWDEFSERLDAIWGRLEALGGSEAELATFEFHIAEFEHELQYYKGKGNPEVEALQGEAAAIINELYAYRHN
B25: D domain SEQ ID NO: 708 (designed binder)
chain: MGSWFEFEWRLDAIENRLNALGGSEAELAWFEYHIAAFEDSLQHYKGKGNPEVEALEWEAHAIQSELQAYRHN
B26: D domain SEQ ID NO: 705 (designed binder)
chain: MGSWDEFWDRLDAIEDRLFALGGSEAELADFERVIAWFENDLQEYKGKGNPEVEALDNEADAIRIELHAYRHN
B27: D domain SEQ ID NO: 703 (designed binder)
chain: MGSWYEFDARLDAIEERLYALGGSEAELAAFEFEIAGFEEALQWYKGKGNPEVEALLKEAEAITDELYAYRHN
B28: D domain SEQ ID NO: 701 (designed binder)
chain: MGSWYEFADRLDAIMDRLVALGGSEAELAYFEWEIAAFEEFLQMYKGKGNPEVEALDEEAEAIKDELMAYRHN
B29: D domain SEQ ID NO: 702 (designed binder)
chain: MGSWNEFWERLDAIEWRLFALGGSEAELAFFELDIAWFEEELQWYKGKGNPEVEALIFEAHAITLELDAYRHN
B30: D domain SEQ ID NO: 707 (designed binder)
chain: MGSWEEFTIRLGAIYWRLFALGGSEAELANFEWFIAEFEYELQPYKGKGNPEVEALVIEANAIDGELQAYRHN
B31: D domain SEQ ID NO: 706 (designed binder)
chain: MGSWDEFDDRLEAIVDRLFALGGSEAELAMFEFEIAQFEHQLQYYKGKGNPEVEALRDEADAIWIELDAYRHN

In US20250026849A1 (ARCELLX, published 2025) one finds ELISA_avg data, which are given here for 31 molecules.

This assay deals with T1, CD123. Briefly: ELISA, format not described. More on the design: unit not given here. On the technique in general: In an ELISA, binding on a coated surface is turned into a signal by an enzyme label.
As for B1, the ELISA_avg amounted to 4.

Regarding B2, the ELISA_avg was 12.2.

Consider B3, for which the ELISA_avg came to 9.

As for B4, the ELISA_avg was 6.2.

With B5, the ELISA_avg was 4.5.

Take B6: the ELISA_avg is 3.1.

B7: the ELISA_avg came out at 4.3.

Consider B8, for which the ELISA_avg turned out to be 4.1.

The molecule B9 gave an ELISA_avg of 4.2.

The molecule B10 returned an ELISA_avg of 4.2.

Regarding B11, the ELISA_avg was found to be 4.2.

For B12, the ELISA_avg worked out at 3.4.

Take B13: the ELISA_avg amounted to 3.9.

B14 came in with an ELISA_avg of 3.7.

As to B15, the ELISA_avg turned out to be 4.

Regarding B16, the ELISA_avg came out at 5.1.

Molecule B17 registered an ELISA_avg of 5.8.

B18 came in with an ELISA_avg of 3.3.

Consider B19, for which the ELISA_avg was 4.3.

For B20, the ELISA_avg worked out at 4.2.

Turning to B21, the ELISA_avg was 11.5.

Regarding B22, the ELISA_avg worked out at 9.2.

The molecule B23 displayed an ELISA_avg of 4.9.

Molecule B24 showed an ELISA_avg of 3.2.

The molecule B25 came in with an ELISA_avg of 3.3.

The molecule B26 gave an ELISA_avg of 3.9.

B27 had an ELISA_avg of 8.9.

The molecule B28 had an ELISA_avg of 3.3.

Take B29: the ELISA_avg came out at 3.

B30 returned an ELISA_avg of 3.3.

For B31, the ELISA_avg was 5.6.
